Data published in US20230095569A1.
Residue numbers refer to the chain shown, from its start.

B1: Ab26 (antibody, V domains shown)
VH: EVMLVESGGGLVKPGGSLKLSCTASGFTFRSYTMSWVRQTPEKRLEWVATITGGGGNTYFLDSVKGRFTFSRDNAKNALYLQMNSLRSEDTALYYCARLGQTQRNAMDYWGQGTSVTVSS
VL: DIVMTQSPSSLSVSAGEKVTMSCKSSQSLLNSGNQMNYLAWYQQKPGQPPKLLIYGASTRESGVPDRFTGSGSGTDFTLTISSVQAEDLAIYYCQNDHTYPLTFGAGTKLEL
B2: Ab27 (antibody, V domains shown)
VH: QVQLQQSGAELVRPGSSVKISCKASGYAFSNYWMNWVKQRPGQGLEWIGQIYPGNGDTNYNGKFKGKATLTADKSSTTAYIQLSSLTSEDSAVYFCTRIYYGNSFAYWGQGTLVTVS
VL: DIVMTQSPSSLTVTAGERVTMSCKSSQSLLNSGNQKNYLTWYQQKPGQPPKLLIYWASTRESGVPDRFTGSGSGTDFTLTISRVQAQDLAVYYCQNDYYYPLTFGAGTKLELK
B3: Ab12 (antibody, V domains shown)
VH: EVMLVESGGGLVKPGGSLKLSCAASGFTFSSYTMSWVRQTPEKRLEWVATIIGGYGNTYYADSVKGRFTISRDSAKNTLYLQMLSLRSEDTALYYCTRLGQTQRNAMDYWGQGTSVTVSS
VL: B2 VL with V3L, T12S, T14S, R18K, K36R, T40A, W56G, R83S, Q87E
B4: Ab05 (antibody, V domains shown)
VH: DVKLVESGEDLVKPGGSLKLSCAASGFTFSNYAMSWVRQTPEKRLEWVAYVSSGGDYIYYADTVKGRFIISRDNARNTLYLQMNSLRSEDTAMYYCARVYFGNSLDYWGQGTTLTVSS
VL: B2 VL with R18K, M21L, S32G, K45R, T80I, R83S, Q87E, L102W, A106G, L112I
B5: Ab04 (antibody, V domains shown)
VH: EVQLQQSGPELVKPGASVKMSCMASGYTFTDYNIHWVKRSHGSRLEWIGYISPISGGAGYNQKFMDKATLTVDKSSNTAYMELRSLTSEDSAVYYCTRGDYWGQGTTLTVSS
VL: DIVMTQSPSSLAVTVGEKVTMSCKSSQSLLNSGNQKNYLTWYQQKPGQPPKLLIYWASTRKSGVPDRFTGSGSGTDFTLTISSVQAEDLGIYYCLNDYGFPLTFGAGSKLELK
B6: Ab16 (antibody, V domains shown)
VH: EVMLVESGGGLVKPGGSLKLSCAASGFTFNSYTMSWVRQTPEKRLEWVATITVIGGNTYYLDSVKGRFTISIDNGKNTLYLQMSSLRSEDTALYYCARMGQTQRNAMDYWGQGTSVTVSS
VL: DIVMTQSPSSLSVSAGQKVTMRCKSSQSLLNSGNQKNYLAWYQQKLGQPPKLLIYGASTRESGVPDRFSGSGSGTDFTLTITSVQAEDLAVYYCQNDYSFPLTFGAGTKLELK
B7: Ab06 (antibody, V domains shown)
VH: EVQLVASGGGLVKPGGSLKLSCAASGITFRSYAMSWVRQTPEKRLEWVATITDGGSYIFYPDNVKGRFTISGDHAKNNLYLQMSHLKSEDTALYFCVRLYYGNSFAYWGQGTLVTVSA
VL: DIVMTQSPSSLTVTAGEKVTLNCKSSQSLFNSGNQKNYLTWYQQKPGQPPKLLIYWASTRESGVPDRFTGSGSGTDFTLTFSSVQAEDLAVYYCQNAYIYPFTFGSGTKLEIK
B8: Ab35 (antibody, V domains shown)
VH: DVFLQESGPGLVKPSQSLSLTCTVTGYSITSDYAWNWIRQFPGNKLEWVTYIGYSGTTSYNPSLKSRISITRDTSKNQFFLQLNSVSTEDTATYYCVRRGSYYGSYWFFDVWGAGTTVTVSS
VL: QVVLSQSPAILSASPGEKVTMTCRASSSVSYMHWYQQKPGSSPKPWIYATSNLASGVPPHFSGSGSGTSYSLTISRVEAEDAATYYCQQWTSNPPTFGGGTKLEIK
B9: Ab01 (antibody, V domains shown)
VH: DVQLQESGPGLVKPSQSLSLTCSVTGYSITSGYYWNWIRQFPGNKLEWMGYITYDGSNNYNPSLKNRISITRDTSKNQFFLKLNSVTTEDAATYFCARDPNYYGTTLPAWFVYWGQGTLVTVSA
VL: DIVVTQSHKFMSTSVGDRVSITCKASQDVGTAVAWYQQKPGQSPKLLIYWASTRHTGVPDRFTGSGSGTDFTLTISNVQSEDLTDYFCQQYSSYVTFGAGTKLELK
B10: Ab34 (antibody, V domains shown)
VH: EVLLQQSGPELVKPGASVKIPCKASGYTFSDYNMDWVKQSHGKSLEWIGHINPNNDNTIYNQKFKGKATLTVDKSSNTAYMDLRSLSSEDTAVYYCARGAYYGNSMDYWGQGTSVTVSS
VL: DIVMTQSPSSLTVTAGERVTMSCKSSQSLLNGGNQRNYLTWYQQKPGQSPKLLIYWASTWESGVPDRFTGSGSGTDFTLTISSVQAEDLAVYYCQNAYFYPYTFGGGTKLEIK
B11: Ab25 (antibody, V domains shown)
VH: EAQLQQSGPELVKPGASVKIFCKASGYTFTDYYINWVKQSHGKSLEWIGDINPNNGGTTYNQKFKGKATLTVDKSSSTASMELRRLTSEDSSVYYCARRDAMDYWGQGTSVTVSS
VL: DIVMTQSQKFMSTTVGDRVSITCTASQNVGPAVAWYQQKPGQSPKLLIYSASRRFTGVPDRFTGSGSGTVFTLTINNVQSEDLADYFCQQYISYPLTFGAGTKLELK
B12: Ab37 (antibody, V domains shown)
VH: EVKLEESGGGLVQPGGSMKLSCVASGFTFSNYWMNWVRQYPEQGLEWVAQIRLNSDNYATHYAESVKGRFTISRDDSRSTVYLQMNNLRAEDTGIYYCTGGGEYWGQGTTLTVSS
VL: B11 VL with V15I, T24K, G30D, P31T, R53T, F55Y, V70D, N76S, V78M, P95Q
B13: Ab29 (antibody, V domains shown)
VH: EVLLQQSGPELVKPGASVKIPCKASGYTLTDHSMDWVKQSHGKSLEWIGNILPNNGGNIYNQKFRGKATLTVDKSSSTAYMELRSLTSEDTAVYNCARGHYGNSFAYWGQGTLVIVS
VL: DIVMTQSPSSLTVRAGEKVTIYCKSSQSLFNSGNQKNYLTWYQQKPGQPPKLLIYWASTRESGVPHRFTGSGSGTDFTLTISSMQADDLATYYCQNGYFFPYTFGGGTKLEIK
B14: Ab13 (antibody, V domains shown)
VH: EVRLVESGGGLVKPGGSLKLSCAGSGFTFSSYTMSWVRQTPEKRLEWVATITIGVNIYYLDSVKGRFTISRDNAKNTLYLQMNSLRSEDTALYYCTRLGQTQRNAMDYWGQGTSVTVSS
VL: DIVMTQSPTSLSVSAGEKVTMTCKSSQSLLNSGNQKNYLAWYQEKPGQPPKLLIYGASTRESGVPDRFTGSGSGTDFTLTISSVQAEDLAVYYCQNNHFYPLTFGAGTKLELK
B15: Ab15 (antibody, V domains shown)
VH: EVMLVESGGDLVKPGGSLKLSCAASGFTFSTYTMSWVRQTPEKRLEWVATIVGGGGYTYYLDSVKGRFTISRDNAKNTLYLQMISLRSEDTALYYCARMGLTQRNALDYWGQGTSITVSS
VL: B14 VL with T9S, A15E, M21L, T22N, L30F, E44Q, S73F, N97D, F99T, T108A
B16: Ab09 (antibody, V domains shown)
VH: EVQLQQSGPELVKPGTSVKMSCKASGYTFTDYNMHWVKLSHGKSLEWIGYINPNNGGTIYNQRFKGKATLTVNKSSRTAYMDLRSLTSEDSAVYYCARQGYYGNSMDYWGQGNSVTVSS
VL: DIVMTQSPSSLTVTPGERVTMSCKSSQSLLNGGNQRNYLTWYQQKPGQPPKLLIYWASTRESGVPDRFAGSGSGTDFTLTISRVQAEDLSFYYCQNSYFYPFTFGSGTKLDLR
B17: Ab11 (antibody, V domains shown)
VH: EVMLVESGGDLVKPGGSLKLSCAASGFTFSRYTMSWVRQTPEKRLEWVATVSVGSGNTYYLDSVKGRFTISRDNAKNTLFLQMNSLRSEDTALYYCTRLGQTQRNAVDYWGQGTSVTVSS
VL: DIVMTQSPSFLSVSAGEKVTMSCKSSQSLFNGGNQKNYLAWYQQKPGQPPKLLIYGASTRDSGVPDRFTGSGSGTDFTLTISNVQAEDLAIYFCQNDHSFPLTFGAGTKLELK
B18: Ab30 (antibody, V domains shown)
VH: QVQLKESGPGLVAPSQSLSITCTVSGFSLTKFGVNWVRQPPGKGLEWLGAIWGDGSTNYHSALISRLSINKDNSKSQVFLKLSSLQNVDTATYYCAKSGYGNAMDYWGHGTSVTVSS
VL: DIVMTQSPSSLTVTTGEKVTLNCKSSQSLLNSGNLKNYLTWYQQRPGQPPKLLIYWASTRESGVPYRFTGSGSGTDFTLTISNVQAEDLAIYYCQNDYFFPFTFGSGTKLEIK
B19: Ab03 (antibody, V domains shown)
VH: EVQLQQSGPELVKPGASVKIACKASGYTFTDYNMDWVKQSHGKSLEWIGNINSYYGGTIYNQKFKGKATLTVDKSSSTAYMVLRSLTSEDNAVYYCARPHLGNALDYWGQGTSITVSS
VL: DIVVTQSPSSLTVTPGEKVTMSCKSSQSLFNSGNQKNYLSWYQQNPGQPPKLLIYWASTRQSGVPDRFTGSGSGTDFTLTISSVQAEDLAGYYCQNDYIFPLTFGAGTKLELK
B20: Ab07 (antibody, V domains shown)
VH: EVQLQQSGPELVKPGASVKISCKASGYSFTDYFMNWVKQSHGKGLEWIGRINPYNGDTFYNQKFKGKATLTVDKSSSTAHMELLSLTSEDFAVYYCALYDGYWGAFVYWGQGTLVTVSA
VL: DIQMTQSPASLSVFVGETVTITCRASENIYSNLAWYQQKQGKSPQLLVYAATNLADGVPSRFSGSGSGTQYSLKINSLQSEDFGSYYCQHFWGTPLTFGAGTKLELK
B21: Ab31 (antibody, V domains shown)
VH: QIQLAQSGPELKKPGETVKISCKASGYSFTNYGMNWVKQAPGKGLKWMGWINTYSGETKYADDFKGRFDFSLETSARTAYLQIKNLKIEDTATYFCARRDAMDYWGQGTSVTVSS
VL: DIVMTQAAPSVPVTPGESVSISCRSSKSLLNSNGNTYLYWFLQRPGQSPQLLIYRMSNLASGVPDRFSGSGSGTAFTLRISRVEAEDVGVYYCMQHLEFPFTFGSGTKLEIK

biological target: mouse Claudine18.2 (mouse) (UniProt P56857); assay: FACS on CHOK1-m18.2 cells

Row | FACS MFI | Binder
1 | 15700 | B1
2 | 8240 | B2
3 | 13100 | B3
4 | 12500 | B4
5 | 8440 | B5
6 | 14300 | B6
7 | 13200 | B7
8 | 9610 | B8
9 | 12700 | B9
10 | 10700 | B10
11 | 23400 | B11
12 | 18600 | B12
13 | 21900 | B13
14 | 12500 | B14
15 | 12200 | B15
16 | 12600 | B16
17 | 11200 | B17
18 | 9610 | B18
19 | 2970 | B19
20 | 15000 | B20
21 | 7790 | B21

biological target: Rhesus monkey Claudine18.2 (Rhesus monkey) (UniProt F6YQY3); assay: FACS on CHOK1-rh18.2 cells

Row | FACS MFI | Binder
22 | 8290 | B1
23 | 9240 | B2
24 | 7610 | B3
25 | 9850 | B4
26 | 2130 | B5
27 | 6660 | B6
28 | 14000 | B7
29 | 8340 | B8
30 | 8380 | B9
31 | 6720 | B10
32 | 12000 | B11
33 | 16700 | B12
34 | 25700 | B13
35 | 5630 | B14
36 | 6320 | B15
37 | 8100 | B16
38 | 7800 | B17
39 | 10500 | B18
40 | 1430 | B19
41 | 9040 | B20
42 | 8010 | B21
